Measurements as given in PMC12507662 (Nature, 2025).

Molecular target: postfusion gB (ectodomain of wild type) (herpes simplex virus 1 (HSV-1), UniProt A1Z0P7)
Experiment: grating-coupled interferometry; gB immobilised by C-terminal Twin-Strep-tag on Strep-Tactin XT chip (400 pg mm^-2); 25 °C; 20 mM HEPES pH 8.0, 300 mM NaCl; waveRAPID tight binder protocol, 200 nM Nb1_gbHSV, regeneration with 3 M GuHCl
Conditions: both partners purified

B1: Nb1_gbHSV (VHH)
VHH: QVQLVESGGGSVQPGGSLRLSCAASASGRLSMSGALGWYRQVQGKSRELVATITDRSSTNYADSVKGRFTISIDDAENTMYLQMNSLKPEDTGVYYCNARWRGMNVWGKGTRVTVSS
notes: alpaca VHH from an immune library; Unlabelled form used for grating-coupled interferometry, cryo-EM with stabilized HSV-1 gB and plaque reduction; also called the nanobody; neutralizing nanobody; source: E. coli SHuffle Express, cytoplasmic, purified (Ni2+ chelate column, eluted by cleaving the tag with Ulp1p)
  binding result: no binding (tested: 200 nM)
